From publication PMC549075, “HIV-1 Tat protein enhances Microtubule polymerization” (Retrovirology, 2005)

Tests used:
[1] = molecular target: Lamb brain tubulin (lamb); assay: cell-based or functional assay
[2] = molecular target: Lamb brain tubulin (lamb); assay: cell-based or functional assay; remark: listed apart in the source

B1: HIV-1 Tat protein, HxB2 strain (natural protein)
chain: MEPVDPRLEPWKHPGSQPKTACTNCYCKKCCFHCQVCFITKALGISYGRKKRRQRRRAHQNSQTHQASLSKQPTSQPRGDPTGPKE
ΔOD ratio (plateau with 8 μM compound divided by plateau of tubulin alone) [1]: 3.31 | fold increase of the turbidity plateau over tubulin alone, 4 μM and 8 μM Tat with 15 μM tubulin [2]: 3.7 fold
